± gives the uncertainty stated by the source.
assay: abundance fitness (aPCA) (normalised: wild type 0, dead -1); higher = more abundant; growth selection in yeast, the domain comes from the species named; conditions: Homo sapiens

Substance | abundance fitness
Scaffold attachment factor B1 M58R, Q15424 | -0.205 ± 0.059
Scaffold attachment factor B1 M58S, Q15424 | -0.16 ± 0.064
Scaffold attachment factor B1 M58V, Q15424 | -0.114 ± 0.064
Scaffold attachment factor B1 M58W, Q15424 | -0.439 ± 0.069
Scaffold attachment factor B1 M58Y, Q15424 | -0.341 ± 0.079
Scaffold attachment factor B1 N47A, Q15424 | -0.236 ± 0.056
Scaffold attachment factor B1 N47C, Q15424 | -0.274 ± 0.073
Scaffold attachment factor B1 N47D, Q15424 | -0.167 ± 0.085
Scaffold attachment factor B1 N47E, Q15424 | -0.168 ± 0.074
Scaffold attachment factor B1 N47H, Q15424 | -0.349 ± 0.076
Scaffold attachment factor B1 N47I, Q15424 | -0.822 ± 0.09
Scaffold attachment factor B1 N47K, Q15424 | -0.349 ± 0.1
Scaffold attachment factor B1 N47L, Q15424 | -0.365 ± 0.061
Scaffold attachment factor B1 N47M, Q15424 | -0.224 ± 0.073
Scaffold attachment factor B1 N47P, Q15424 | -1.01 ± 0.11
Scaffold attachment factor B1 N47Q, Q15424 | -0.227 ± 0.067
Scaffold attachment factor B1 N47R, Q15424 | -0.207 ± 0.065
Scaffold attachment factor B1 N47S, Q15424 | -0.236 ± 0.07
Scaffold attachment factor B1 N47T, Q15424 | -0.331 ± 0.066
Scaffold attachment factor B1 N47V, Q15424 | -0.448 ± 0.056
Scaffold attachment factor B1 N47W, Q15424 | -0.593 ± 0.079
Scaffold attachment factor B1 N47Y, Q15424 | -0.483 ± 0.088
Scaffold attachment factor B1 N53A, Q15424 | -0.175 ± 0.056
Scaffold attachment factor B1 N53C, Q15424 | -0.138 ± 0.083
Scaffold attachment factor B1 N53D, Q15424 | -0.038 ± 0.068
Scaffold attachment factor B1 N53E, Q15424 | -0.198 ± 0.087
Scaffold attachment factor B1 N53F, Q15424 | -0.354 ± 0.048

Substance | abundance fitness
Scaffold attachment factor B1 N53G, Q15424 | -0.08 ± 0.057
Scaffold attachment factor B1 N53H, Q15424 | -0.127 ± 0.071
Scaffold attachment factor B1 N53I, Q15424 | -0.27 ± 0.084
Scaffold attachment factor B1 N53M, Q15424 | -0.376 ± 0.063
Scaffold attachment factor B1 N53P, Q15424 | -0.284 ± 0.06
Scaffold attachment factor B1 N53Q, Q15424 | -0.288 ± 0.089
Scaffold attachment factor B1 N53R, Q15424 | -0.067 ± 0.049
Scaffold attachment factor B1 N53S, Q15424 | -0.085 ± 0.051
Scaffold attachment factor B1 N53V, Q15424 | -0.158 ± 0.056
Scaffold attachment factor B1 N53W, Q15424 | -0.712 ± 0.059
Scaffold attachment factor B1 N71A, Q15424 | -0.329 ± 0.071
Scaffold attachment factor B1 N71C, Q15424 | -0.207 ± 0.07
Scaffold attachment factor B1 N71D, Q15424 | -0.247 ± 0.1
Scaffold attachment factor B1 N71E, Q15424 | -0.36 ± 0.072
Scaffold attachment factor B1 N71F, Q15424 | -0.338 ± 0.068
Scaffold attachment factor B1 N71H, Q15424 | -0.309 ± 0.1
Scaffold attachment factor B1 N71I, Q15424 | -0.468 ± 0.1
Scaffold attachment factor B1 N71K, Q15424 | -0.253 ± 0.073
Scaffold attachment factor B1 N71L, Q15424 | -0.299 ± 0.062
Scaffold attachment factor B1 N71M, Q15424 | -0.3 ± 0.057
Scaffold attachment factor B1 N71P, Q15424 | -0.365 ± 0.076
Scaffold attachment factor B1 N71Q, Q15424 | -0.263 ± 0.095
Scaffold attachment factor B1 N71S, Q15424 | -0.19 ± 0.063
Scaffold attachment factor B1 N71T, Q15424 | -0.267 ± 0.092
Scaffold attachment factor B1 N71V, Q15424 | -0.211 ± 0.055
Scaffold attachment factor B1 N71W, Q15424 | -0.39 ± 0.057
Scaffold attachment factor B1 N71Y, Q15424 | -0.448 ± 0.094

Substance | abundance fitness
Scaffold attachment factor B1 P72A, Q15424 | -0.187 ± 0.07
Scaffold attachment factor B1 P72C, Q15424 | -0.103 ± 0.061
Scaffold attachment factor B1 P72D, Q15424 | -0.407 ± 0.1
Scaffold attachment factor B1 P72E, Q15424 | -0.302 ± 0.068
Scaffold attachment factor B1 P72F, Q15424 | -0.185 ± 0.098
Scaffold attachment factor B1 P72G, Q15424 | -0.11 ± 0.048
Scaffold attachment factor B1 P72H, Q15424 | -0.149 ± 0.073
Scaffold attachment factor B1 P72I, Q15424 | -0.382 ± 0.11
Scaffold attachment factor B1 P72K, Q15424 | -0.423 ± 0.091
Scaffold attachment factor B1 P72L, Q15424 | -0.14 ± 0.048
Scaffold attachment factor B1 P72M, Q15424 | -0.362 ± 0.08
Scaffold attachment factor B1 P72N, Q15424 | -0.374 ± 0.11
Scaffold attachment factor B1 P72Q, Q15424 | -0.432 ± 0.098
Scaffold attachment factor B1 P72R, Q15424 | -0.23 ± 0.052
Scaffold attachment factor B1 P72S, Q15424 | -0.197 ± 0.058
Scaffold attachment factor B1 P72T, Q15424 | -0.329 ± 0.085
Scaffold attachment factor B1 P72V, Q15424 | -0.116 ± 0.053
Scaffold attachment factor B1 P72W, Q15424 | -0.296 ± 0.068
Scaffold attachment factor B1 P72Y, Q15424 | -0.176 ± 0.06
Scaffold attachment factor B1 R29A, Q15424 | -0.465 ± 0.072
Scaffold attachment factor B1 R29C, Q15424 | -0.107 ± 0.073
Scaffold attachment factor B1 R29D, Q15424 | -0.37 ± 0.091
Scaffold attachment factor B1 R29E, Q15424 | -0.143 ± 0.068
Scaffold attachment factor B1 R29F, Q15424 | -0.03 ± 0.06
Scaffold attachment factor B1 R29G, Q15424 | -0.18 ± 0.049

Source: the Human Domainome abundance scans (Beltran et al. 2025)
